Substrate in this data set: O=C(Cc1cccs1)N[C@@H]1C(=O)N2C(C(=O)O)=C(/C=C/c3ccc([N+](=O)[O-])cc3[N+](=O)[O-])CS[C@H]12
Kind of data set: purified protein. Conditions: nitrocefin 50-200 μM, phosphate buffer pH 7.4.

As usually defined, the Km is the concentration of substrate that gives half-maximal velocity. In general, kcat refers to the maximal rate divided by the concentration of active sites.

B1: PBP2a (Staphylococcus aureus) (protein)
chain: YASKDKEINNTIDAIEDKNFKQVYKDSSYISKSDNGEVEMTERPIKIYNSLGVKDINIQDRKIKKVSKNKKRVDAQYKIKTNYGNIDRNVQFNFVKEDGMWKLDWDHSVIIPGMQKDQSIHIENLKSERGKILDRNNVELANTGTAYEIGIVPKNVSKKDYKAIAKELSISEDYIKQQMDQKWVQDDTFVPLKTVKKMDEYLSDFAKKFHLTTNETESRNYPLEKATSHLLGYVGPINSEELKQKEYKGYKDDAVIGKKGLEKLYDKKLQHEDGYRVTIVDDNSNTIAHTLIEKKKKDGKDIQLTIDAKVQKSIYNNMKNDYGSGTAIHPQTGELLALVSTPSYDVYPFMYGMSNEEYNKLTEDKKEPLLNKFQITTSPGSTQKILTAMIGLNNKTLDDKTSYKIDGKGWQKDKSWGGYNVTRYEVVNGNIDLKQAIESSDNIFFARVALELGSKKFEKGMKKLGVGEDIPSDYPFYNAQISNKNLDNEILLADSGYGQGEILINPVQILSIYSALENNGNINAPHLLKDTKNKVWKKNIISKENINLLTDGMQQVVNKTHKEDIYRSYANLIGKSGTAELKMKQGETGRQIGWFISYDKDNPNMMMAINVKDVQDKGMASYNAKISGKVYDELYENGNKKYDIDE
On to B1, for which the Km amounted to 29.28 µM and the turnover number (kcat) was determined as 259.1 s⁻¹.

The values are drawn from article doi:10.1101/2024.05.29.596450v1.
